Experiments:
[1] = target: the molecule itself; assay: TEM of capsids purified from E. coli; self-assembly
[2] = target: the molecule itself; assay: SEC, iodixanol gradient and TEM of particles from HEK293 supernatant; self-assembly into capsids
[3] = target: the molecule itself; assay: electron microscopy; self-assembly
[4] = target: the molecule itself; assay: size-exclusion chromatography of purified PNMA1; self-assembly

Protein | binding result [1] | binding result [3] | also measured
PNMA5 (other, Capsids were purified from E. coli) MALTLLEDWCKGMDMDPRKALLIVGIPMECSEVEIQDTVKAGLQPLCAYRVLGRMFRREDNAKAVFIELADTVNYTTLPSHIPGKGGSWEVVVKPRNPDDEFLSRLNYFLKDEGRSMTDVARALGCCSLPAESLDAEVMPQVRSPPLEPPKESMWYRKLKVFSGTASPSPGEETFEDWLEQVTEIMPIWQVSEVEKRRRLLESLRGPALSIMRVLQANNDSITVEQCLDALKQIFGDKEDFRASQFRFLQTSPKIGEKVSTFLLRLEPLLQKAVHKSPLSVRSTDMIRLKHLLARVAMTPALRGKLELLDQRGCPPNFLELMKLIRDEEEWENTEAVMKNKEKPSGRGRGASGRQARAEASVSAPQATVQARSFSDSSPQTIQGGLPPLVKRRRLLGSESTRGEDHGQATYPKAENQTPGREGPQAAGEELGNEAGAGAMSHPKPWET | binds | – | –
PNMA7B (other, Capsids were purified from E. coli; also called ZCCHC18) MASITACVGNSRQQNAPLPPWAHSMLRSLGRSLCPLVVKMAERNMKLFSGRVVPAQGKETFENWLIQVNEVLPDWSMSEEEKLKRLMKTLRGPAREVMRLLQAANPNLSVADFLRAMKLVFGESESSVTAHGKFFNTLQAQGEKASLYVIRLEVQLQNAIQAGILAEKDANQTRLQQLLLGAELNRDLRFRLKHLLRMYANKQERLPNFLELIKMIREEEDWDDAFIKRKRPKRSEPIMERAASPVAFQGAQPIAISSADCNCNVIEIDDTLDDSDEDVILVVSLYPSLTPTGAPPFRGRARPLDQVLVIDSPNNSGAQSLSTSGGSGYKNDGPGNIRRARKRKYTTRCSYCGEEGHSKETCDNESNKAQVFENLIITLQELTHTEERSKEVPGEHSDASEPQ | binds | – | –
PNMA2 (other, Self-assembling capsid protein; It was tested as particles from HEK293 supernatant (HA-tag pulldown) and as monomers and capsids assembled in vitro) MALALLEDWCRIMSVDEQKSLMVTGIPADFEEAEIQEVLQETLKSLGRYRLLGKIFRKQENANAVLLELLEDTDVSAIPSEVQGKGGVWKVIFKTPNQDTEFLERLNLFLEKEGQTVSGMFRALGQEGVSPATVPCISPELLAHLLGQAMAHAPQPLLPMRYRKLRVFSGSAVPAPEEESFEVWLEQATEIVKEWPVTEAEKKRWLAESLRGPALDLMHIVQADNPSISVEECLEAFKQVFGSLESRRTAQVRYLKTYQEEGEKVSAYVLRLETLLRRAVEKRAIPRRIADQVRLEQVMAGATLNQMLWCRLRELKDQGPPPSFLELMKVIREEEEEEASFENESIEEPEERDGYGRWNHEGDD | – | – | binding result [2]: binds
PNMA7A (other, also called ZCCHC12) MASIIARVGNSRRLNAPLPPWAHSMLRSLGRSLGPIMASMADRNMKLFSGRVVPAQGEETFENWLTQVNGVLPDWNMSEEEKLKRLMKTLRGPAREVMRVLQATNPNLSVADFLRAMKLVFGESESSVTAHGKFFNTLQAQGEKASLYVIRLEVQLQNAIQAGIIAEKDANRTRLQQLLLGGELSRDLRLRLKDFLRMYANEQERLPNFLELIRMVREEEDWDDAFIKRKRPKRSESMVERAVSPVAFQGSPPIVIGSADCNVIEIDDTLDDSDEDVILVESQDPPLPSWGAPPLRDRARPQDEVLVIDSPHNSRAQFPSTSGGSGYKNNGPGEMRRARKRKHTIRCSYCGEEGHSKETCDNESDKAQVFENLIITLQELTHTEMERSRVAPGEYNDFSEPL | – | binds | –
PNMA6A (other) MAVTMLQDWCRWMGVNARRGLLILGIPEDCDDAEFQESLEAALRPMGHFTVLGKAFREEDNATAALVELDREVNYALVPREIPGTGGPWNVVFVPRCSGEEFLGLGRVFHFPEQEGQMVESVAGALGVGLRRVCWLRSIGQAVQPWVEAVRCQSLGVFSGRDQPAPGEESFEVWLDHTTEMLHVWQGVSERERRRRLLEGLRGTALQLVHALLAENPARTAQDCLAALAQVFGDNESQATIRVKCLTAQQQSGERLSAFVLRLEVLLQKAMEKEALARASADRVRLRQMLTRAHLTEPLDEALRKLRMAGRSPSFLEMLGLVRESEAWEASLARSVRAQTQEGAGARAGAQAVARASTKVEAVPGGPGREPEGLLQAGGQEAEELLQEGLKPVLEECDN | – | binds | –
PNMA1 (other, Self-assembling capsid protein) MAMTLLEDWCRGMDVNSQRALLVWGIPVNCDEAEIEETLQAAMPQVSYRMLGRMFWREENAKAALLELTGAVDYAAIPREMPGKGGVWKVLFKPPTSDAEFLERLHLFLAREGWTVQDVARVLGFQNPTPTPGPEMPAEMLNYILDNVIQPLVESIWYKRLTLFSGRDIPGPGEETFDPWLEHTNEVLEEWQVSDVEKRRRLMESLRGPAADVIRILKSNNPAITTAECLKALEQVFGSVESSRDAQIKFLNTYQNPGEKLSAYVIRLEPLLQKVVEKGAIDKDNVNQARLEQVIAGANHSGAIRRQLWLTGAGEGPAPNLFQLLVQIREEEAKEEEEEAEATLLQLGLEGHF | – | – | binding result [4]: binds
